Square brackets hold non-standard residues; d marks the D form. Ends that are not written are not given here. Arg(Me2a) = CN(C)C(=N)NCCC[C@H](N)C(=O)O; Lys(Me3) = C[N+](C)(C)CCCC[C@H](N)C(=O)O
Assays:
[1] = target: RcATXR5 (ATXR5 SET domain) (Ricinus communis, UniProt B9RU15); assay type: binding
[2] = target: nucleosome core particle (Xenopus laevis recombinant histone octamer on 147 bp 601 DNA) (Xenopus laevis); assay: native gel or EMSA
[3] = target: T1, SET domain of Ricinus communis ATXR5 (a.a. 158-374) (Ricinus communis, UniProt B9RU15 158-374); assay: crystal structure
T1 sequence: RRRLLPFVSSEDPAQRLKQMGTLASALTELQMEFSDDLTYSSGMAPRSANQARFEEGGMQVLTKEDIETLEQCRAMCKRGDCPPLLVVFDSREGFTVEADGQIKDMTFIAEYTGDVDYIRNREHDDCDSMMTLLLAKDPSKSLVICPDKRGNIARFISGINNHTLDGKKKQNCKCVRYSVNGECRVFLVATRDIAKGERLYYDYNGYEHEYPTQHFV

Nc1ncnc2c1ncn2[C@@H]1O[C@H](C[C@@H](N)CC[C@H](N)C(=O)O)[C@@H](O)[C@H]1O [SFG, sinefungin]
GST pull-down, compound-dependent association with GST-PHD [1]: PHD domain of ATXR5 senses the binding of sinefungin to the SET domain

full-length Glycine max ATXR5 (a.a. 1-334) (enzyme)
Kd [2]: 380 nM

KQLATKAARKSAPATGGV[Lys(Me3)]Y [histone H3.1 peptide (a.a. 18-36) K36me3]
binding result [3]: binds

KQLATKAA[Rme1]KSAPATGGVKY [histone H3.1 peptide (a.a. 18-36) R26me1]
binding result [3]: binds

KQLATKAA[Arg(Me2a)]KSAPATGGVKY (not fully specified) [histone H3.1 peptide (a.a. 18-36) R26me2a]
binding result [3]: binds

Reference: publication PMC5499861 (Nucleic Acids Research, 2017)
